Results published in patent publication US20120058499A1, “Bioluminescent Detection of Protease Activity” (priority 2010, published 2012).

Biological target: Ub(1-76)-aminoluciferin (human) (UniProt P0CG48)
Experiment: cell-based or functional assay

For “UCHL3 (ubiquitin carboxyl-terminal hydrolase isozyme L3) (from UniProt P15374 1-230) (enzyme)”, the fold decrease in limit of detection against Z-RLRGG-amino-luciferin was 1000 fold.
